Reference: the nanobody polyreactivity screen of Harvey et al. (2022)

Assay: yeast display, Sf9 membrane polyspecificity reagent, FACS + sequencing; frameworks hold sequencing errors
Method in brief: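 Using colony PCR, genes from sorted yeast display clones were amplified, then sequenced on MiSeq at 2 × 250 and filtered by CDR length. The clones had been stained with 10% biotinylated, detergent-solubilized Sf9 membrane reagent for 1 hour at 4 °C and sorted by FACS into low and high (top ~1%) gates on anti-HA and streptavidin fluorescence. Polyreactivity labels come from the gate of origin.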

Row | Sequence | polyreactivity (PSR sort gate)
1 | QVQLVESGGGLVQAGGSLRLSCAASGGIFHYYAMGWYRQAPGKERELVAAISWNTGSTYYADSVKGRFTISRDNAKNTVYLQINSLKPEDTAVYYCAASSRRSYLPEGQGEYWGQGTQVTVSS | high polyreactivity
2 | QVQLVESGGGLVQARGSLRLSCAASGFIFASNAMGWYRQAPGKERELVAAITKSGGRTYYADSVKARFTISRDTAKNTVYLQMNSLKPVDTAVYYCAAKVRVVHRPYDHWGQGTQVTVSS | high polyreactivity
3 | QVQLVESGGGLVQAGGSLRLSCAASGRIFVLYAMGWYRQAPGKERELVAAISTSGGSTYYADSVKGRFTISRDNAKNTYYLQMNSLKPEDTAVYYCAADRSARFLFIQYYPYGMDYWGQGTQVTVSS | high polyreactivity
4 | QVQLVETGGGLVQAGGSLRLSCAASGFTFSFYTMGWYRQAPGKERELVAAISRRGGSTYYADSVKGRFTISRDNAKNTVYLQMNSLKPEDTAVYYCPTDHIPSVGDDYWGQGTQVTVSS | high polyreactivity
5 | QVQLVESAGCLVQAGGSLRLSCDASGIIFKVYAMGWYSQAPGKEREWVAAISWSGSSTYYADTVKGRFTISRDKAKNTVYLQMNSLKPEDTAVYYCAAYSVARSMGYWGQGTQVTVSS | high polyreactivity
6 | QVQLVESGGGLVQAGGSLRLSCAASGRIFRQNAMGWYRQAPGKERELVAAIDWNGTSTYADSVKGRFTISRDNAKNTVYLQMNSLKPEDTAVYYCNASESKPTFEYDYWGQGTQVTVSS | low polyreactivity
7 | QVQLVESGGGLVQAGGRLRLSSADYGITIELYVMGWYRQAPGKERELVAAINRGTSTYYADSVKGRFTISRDNAKNTVYLQMNSLKPEDTAVYYCAAESGVVALYRYDYWGQGTQVTVSS | low polyreactivity
8 | QVQLVESGAGLVQAGGSLRLSCAASGRTIRSYAMGWYRQATGKERELVAAISSGGRTYYADSVKGRFTISRDNAKNNVYLQMNSLKPEDTAVYYCAVRYRVYIFQYGYWGQGTQVTVSS | high polyreactivity
9 | QVQLVESGGGLVRAGGSLRLSCAASGRNKDNVMGWYRQAPGKERELVAAITRSAGRTYYADSVKGRFTISRDNAKNTVYLQMNSLIPEDTAVYYFATADAHYSAAGEDYWGQGTQVTVSS | low polyreactivity
10 | QVQLVESGGGLVQAGGSLRLSCAASGSIIRQNAMGWYRQAPGKERELVAAISFSGTSTYYADSVKGRFTISRDNAKNTVYLQMNSLKPEDTAVYYCAVDNISYWAVENDYWGQGTQVTVSS | low polyreactivity
11 | QVQLVESGGGLVQAGGSLRLSCAAYGFIVPAYAMGWYRQAPGKERELVAAISWDGGSTYYADSVKGRFTISRDNAKNTVYLQMNSLKPEDTPVYYCAATFFADTWYGWYDYWGQGTQVTVSS | high polyreactivity
12 | QVQLVESGGGLVQAGGSLRLSCAASGRIFYLYGMGWYRQAPGKERELVAGITGSGGNTYYADSVKGRFTISRDNAMNTVYLQMNSLKPEDTAVYYCIARFRARPRMGYWGQGTQVTLSS | high polyreactivity
13 | QVQLVVSGGGLVHAGGSLRLSCAASGNTIFYYDLGGYIQAPGKERELVADITSRGTRTYYADSVKGRFTISRDKAKNTVYLQMNSLKPEDTAVYYCNKARGVAYDWGQGTQVTVSS | high polyreactivity
14 | QVQLVESGGGLVQAGGSLRLSCAASGIIFIVNAMGWYRQAPGKERELVAAISNGGSTNYADSVKGRFTISRDNAKNTVYLQMNSLKPEDTAVYYCADDYSTWLRAYDYWGQGTQVTVSS | low polyreactivity
15 | QVQLVESGGGLVQAGGSLRLSCAASGRILPSNAMGWYRPAPGKERELVAGITSGGSTDYADSVKGRFTISRDNAKNTVYLQMNSLKPEDTAVYYCNKPFPYYPDGPNGYDYWGQGTQVTVSS | low polyreactivity
16 | QVQLHESGGVQAGGSLRLSCAASGYISRSDVMGWYRQAPGKERELVATINNGTITYYADSVKGRFTISRDNAKNTVYLQMNSLKPEDTAVHYCAVVQSDTDSLYYWGQGTQVTVSS | low polyreactivity
17 | QVQLVESGGGLVQAGGSLRLSCAASGFIFAFNAMGWYRQAPGKEREFVASITGSSDSTYYADSVKGRFTISRDNAKNTVYLQMNSLKPEDTAVYYCAADPASSYGKYSYYYWGQGTQVTVSS | high polyreactivity
18 | QVQLVESGGGLVQAGGSLRLSCAASGRIFKYYAMGWYRQAPGKERELVAAINRDGGRTYYADSVKGRFTISRDNAKNTVYLQMNRLKPDDTAVYYCAASYGYWGQGSQVTVSS | low polyreactivity
19 | QVQLVESGGGLVQAGGSLRLSCAASGSIFYDNAMGWYRQAPGKERELVAAIRGRGGSTYYADSVKGRFTISRDNAKNTVYLQMNSLKPEDTAVYYCNALNYRYRKYDYWGQGTQVTVSS | high polyreactivity
20 | QVQLVESGGGLVQAGGSLRLSCAASGRTCGGYAMGWYRQEPGNERELVAAISYRGARTYYADSVKGRFTISRDNAKNTVYLQMNSRKPEDTAVYYCAASRPGLRTPGQMGYWGQGTQVTVSS | high polyreactivity
21 | QVQLVESRGGLVQAGGSLRLSCPASGSTFVSNAMGWYRQAPGKERELVAAISKSGGSTYYADSVKGRFTISRDNAKNTVYLQMISLKPEDTAVYYCAKYNAKSFYGQYDYWGQGTQVTVSS | high polyreactivity
22 | QVQLVESGGGLVQAGGSLRLSCAASGRTFFVYAMGWYRQAPGKERELVASIRWRGSTYYADSVKGRFTISRDNAKNTVYLKMNSLKPEDTAVYYCAARYPYELGFDYWGQGTQVTVSS | low polyreactivity

Row | Sequence | polyreactivity (PSR sort gate)
23 | QVQLVESGGGLVQAGGSLRLSCAASGRIFQSYAMGWYRQAPGKERELVAGIRAGGGRTYYADSVKGRFTISRDNAKNTVYLQMNSLKPEDTAVYYCAAGGRPYKLDFTRSDYWGEGTQVTVSS | low polyreactivity
24 | QVQLVESGGGLVQAGGSLRLSCAASGRIFYYNGMGWYRQAPGKERELVAAISSRGGSTYYADSVKGRFTISRDNAKNTVYLQMNSLKPEDTAVYYCAATLSDRYSWRPYGMYYWGQGTQVTVSS | high polyreactivity
25 | QVQLVESGGGLVQAGGSLRLSCAASGGTFESYTMGWYRQAPGKERELVATISTSGGRTYYADSVKGRFTISRDNAKNTVYLQMHSLKPEDTAVYYCNKVSDAYGEYVTLHLDYWGQGTLVTVSS | low polyreactivity
26 | QLQLVESGGGLVQAGGSLRLSCAASGSTIDHNAMGWYRQAPGKERELVATISSSGGSTYYADSVKGRFTISRDNAKNTVYFQMNSLKPEDTAGYDCNRYFRRGGRYPYNYWGQGTQVTVSS | high polyreactivity
27 | QVQHVESGGGLVQARGSLRLRCAASGFIFRANAMGWYRHAPGKERELVATISRSGGSTSYADSVKGLFTISRDNAKNTVYLQMNSLKPEDSAVYYCAARKYTLRRKSRYGYWGQGTQVTVSS | high polyreactivity
28 | QVQLVESGGGLVQAGCSLRLSCAASGITFANYAMGWYRPAPGKVRELVAAINWSGGITYADSVKGRFTISRDNAKNTVYLQMHSLKPEDTAVYYCNPYYPDYAKYDYWGQGTQVTVSS | low polyreactivity
29 | QVQLVESGGGLVQAGGSLRLSCAASGLISYHYAMGWYRQAPGKERELVASISYTGGSTFYADSVKGRFTISRDNAKNTVYLQMNSLKPEDTAVYYCAAYRIWRPSYYYWGQGTQVTVSS | high polyreactivity
30 | QVQLVESGGGIVQAGGSLRLSCAASGSTFNWNAMGWYRQAPGKEREFVAAISKSGGTTYYADSVKGRFTISRDNAKNTVYLQMNSLKPEDTAVYYCAAVRRYHSYPDGGYWGQGTQVTVSS | high polyreactivity
31 | QVQLVESGGGLVQAGGSLRLSCAASGSTFARYVMGWYRQAPGKDRELVAAIRSTGGRTYYADSVKGRFTISRDNAKNTVYLQMNSLKPEDTAVYYCAAAFGQYSRKRFDYWGQGTQVTVSS | high polyreactivity
32 | QVQLVESGGGLVQAGGSLRLSCAASGSTFRYYAMGWYRQAPGKEREFVAAISWSGSSTYYADSVKGRFTISRDNAKNTVYLQMNSLKPEDTAVYYCAARYRYRSSSYDYWGQGTQVTVSS | high polyreactivity
33 | QVQLVESGGGLVQAGGSLRLSCAASGSTFVWYAMGWYRQAPGKERELVAVINWSAGRTYYADSVKGRFTFSRDTAKNTVYLQMNSLKPEDTAVYYCATRTYYRSRTVGWGKMDYWGQGTQVTVSS | high polyreactivity
34 | QVQLVESGGGLDQAGGTLRISCAASGSIFAPNAMSWNRQAPGKERELVAAITYSGTSTYADSVKGRFTISRDNAKNTVYLQMNSLKPEDTAVYYCAAEGSGVYYHSYDYWGQGTQVTVSS | low polyreactivity
35 | QVQLVESGGGLVQAGGSLRLSCAASGFTLLPYAMGWYRQAPGKERELVAAISRRGVSTYYADSVKGRFTISRDNAKNTVYLQMNSLIPEDTSVYYWASRYFTGYGLRTQFYFWGQGTQVTVSS | high polyreactivity
36 | QVQLVESGGGLVQAGGSLRLSCAASGRTSARYGMGWYRQAPGKERELVASIRRSGDSTYYADSVKGRFTISRDNAKNTVYLQLNSLKPEDTAVYYCAAGGKQGKRDYWGQGTQVTVSS | low polyreactivity
37 | QVQLVESGGGLVQAGGSLRLSCAASGSTFGGYAMGWYRQAPRKERELVAAISQSGTRTFYADSVKGRFSISRDNAKNTVYLQMKSLKPEDSAVYYCAAVRSYRRALLTLDYWGLGTQVTVSS | high polyreactivity
38 | QVQLVESGGGLVQAGGSLRLSCAASGIIFDYNAMGWYRQAPGKERELVAAISSSGGSTYYADSVKGRFTLSRDNAKNTVYLLMTSLKPEDTAVYYCAAAPRFRGYDYWGQGTQVTVSS | high polyreactivity
39 | QVQLVESGGGLVQAGGSLRLSCAASGRTIYRYDMGWYRQSPGKERKFVAPISWSGGRTYYADSVKGRFTIARDNAKNTVYLQMNSLKPEDTAVYYCAAEYPWSVGYWRYGLDDYWGQGTQVSVSS | high polyreactivity
40 | QVQLVESGGGLVQAGGSLRLSCAASGFTFSEYVMGWYRQAPGKERELVAVITSGSSTYYADSVKGRFTISRDNAKNTVYLQMNSLTPEDTAVYYCAAESYFFSPRTREKFDYWGQGTQVTVSA | low polyreactivity
41 | QVQLVESGGGLVQAGGSLRLSCAASGSTFSRNAMGWYRQAPGKERELVAAITQSGGRTYYADSVKGRFTISRDNAKNTVYLQMNSLKPEDTAVYYCNARGRRSGYISGYDYWGQGTQVTVSS | high polyreactivity
42 | QVQLVESGGGLVQAGGSLRLSCAASGSIFGRYAMGWYRQAPGKERELVAAITFTGGSTYYADSVKGRFTISRDNAKNTVYLQMNSLKPEDTAVYYCAARSLFYRGYGYWGQGTQVTVSS | high polyreactivity
43 | QVQLVESGGVLVQGRGSLRLSCDASGFTYYTNDMGWYRQAPWKERELVAAINSGGSTKYADSVKGRFPISRDNAKNTVYEQMNSLKPEETAVYYCNRDDNRKHSFGSVGYDYWGQGHQVTVSS | low polyreactivity
